The assay addresses β-klotho (KLB). The experiment in a line: cell-based or functional assay.

Here are results for one substance from patent US20220340635A1, “FUSION PROTEIN FOR TREATMENT OF METABOLIC DISEASE” (ZHEJIANG DOER BIOLOGICS CORPORATION, priority 2019, published 2022).

In turn, “Natural FGF21 (from UniProt Q9NSA1 29-209) (ligand)” returned an FGF21 activity (EC50, nM) of 0.12 nM.
